Source: the supplement of paper PMC10724198
± gives the standard deviation of the averaged measurements.

system: Saccharomyces cerevisiae; assay: protein stability index of tFT-peptide fusion (C-terminal peptide) (PSI (0-1 scale)); higher = more stable (slower turnover); conditions: genetic background: wild type; temperature: 30 C
Procedure: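 Multiplexed protein stability (MPS) profiling in S. cerevisiae. Random 12-aa peptides (tFT-X12 library) are fused to the C-terminus of a sfGFP-mCherry tandem fluorescent timer, after mCherry and a GGGS linker. Cells are FACS-sorted into 8 mCherry/sfGFP bins and deep-sequenced. The protein stability index (PSI) is the read-weighted bin average, scaled from 0 (unstable) to 1 (stable). Only peptides with >10 reads are reported; cells were grown at 30 °C in SC-His with glucose.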
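Also: PSI is a weighted mean of sequencing reads over stability bins, variants kept only with over 10 reads, mCherry proximal and sfGFP distal, peptide attached via GGGS linker.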

Sequence	protein stability index
ASRPAPPAPAFL	0.675 ± 0.005
ASRWVLLVGGGV	0.652 ± 0.056
ASSDRWVVYLYG	0.685 ± 0.0083
ASSLLPIPPPPF	0.706 ± 0.012
ASSLPIWLVWWL	0.536 ± 0.02
ASSSLLRCFSRF	0.648 ± 0.062
ASTRPFYVSSFG	0.741 ± 0.13
ATFSVMRGQHGQ	0.686 ± 0.0057
ATGFSLLDFSMP	0.679 ± 0.069
ATHSMSYRGSTK	0.662 ± 0.081
ATKKRKKKNKQT	0.756 ± 0.11
ATLDVTALRQES	0.636 ± 0.011
ATPVPTPRPAAP	0.729 ± 0.048
ATPYGLTPNYSG	0.676 ± 0.15
ATRRYQYSPHKV	0.651 ± 0.026
ATTPPSSLFGPL	0.768 ± 0.072
ATVKRAVPPVFR	0.7 ± 0.041
AVARYPPHCSHN	0.768 ± 0.13
AVCVSVCGRLLV	0.5492 ± 0.0023
AVGWQRQTEQRR	0.684 ± 0.088
AVLGGLIYECVV	0.634 ± 0.018
AVLGRRSQHASA	0.6832 ± 0.0036
AVNADMHDKKIA	0.7 ± 0.036
AVPAPPPTLPPI	0.685 ± 0.051
AVPSPVTLPTTS	0.641 ± 0.066

Sequence	protein stability index
AVQTTGRAGRVG	0.683 ± 0.056
AVVRTVVCLNVL	0.573 ± 0.013
AVVVCGGGGWWA	0.687 ± 0.068
AVVWMGAGVGGV	0.718 ± 0.03
AVWLGGGGRFVG	0.78 ± 0.034
AWAVGPTICRRG	0.7219 ± 0.0021
AWLPVLPLVSFF	0.621 ± 0.062
AWLTTSGLVGSD	0.725 ± 0.029
AYYRPQNLSPVT	0.675 ± 0.083
CAADYRRHLQRP	0.669 ± 0.026
CAAVPLLASDVR	0.688 ± 0.011
CAAYIYLGGSFF	0.707 ± 0.033
CACIPLHFAPSL	0.683 ± 0.04
CANFIGAVPGSV	0.686 ± 0.011
CAQLVLDNHTGP	0.69 ± 0.079
CAVLGGGVVWGA	0.668 ± 0.028
CAVPAVIDLDKF	0.65 ± 0.087
CCADPWRIARPW	0.729 ± 0.042
CCCGSGFFLLKV	0.525 ± 0.021
CCFPPLSPPASP	0.656 ± 0.072
CCGHEFEIYNWV	0.786 ± 0.1
CCILTHFSSCET	0.679 ± 0.011
CCTPSFANVRDG	0.6998 ± 0.0027
CECAEGRGKDRS	0.591 ± 0.0069
CELCVCKHGGKG	0.702 ± 0.013

Sequence	protein stability index
CFASTFVSPILH	0.694 ± 0.03
CFFVRLSSFYCS	0.63 ± 0.0089
CFLFSFSLFPFV	0.618 ± 0.066
CFPALSGVQGGM	0.706 ± 0.082
CFPPLPPPPPPS	0.736 ± 0.0077
CFPRVLFPVAAP	0.608 ± 0.049
CFPSSVPFPSLL	0.778 ± 0.058
CFVLPWHVPFGF	0.715 ± 0.021
CGCGCPSRVLVS	0.643 ± 0.061
CGCSLPGFCFLA	0.53 ± 0.022
CGDAGSVGCVYV	0.699 ± 0.055
CGEGGVCRLVFS	0.682 ± 0.0074
CGGAADWRDWGW	0.775 ± 0.086
CGGFAEGGGCRM	0.697 ± 0.028
CGLFFSCVGVSG	0.6411 ± 0.005
CGQGRSVPFRSV	0.658 ± 0.0094
CGQKREFKEGGG	0.634 ± 0.0059
CGWLTCSAGFCA	0.726 ± 0.11
CGWSQLCRDSES	0.675 ± 0.042
CGYVSGGWAGNV	0.691 ± 0.025
CHTDLPLLGTSR	0.681 ± 0.022
CHTESKLKRKKW	0.645 ± 0.028
CIPCLLAYPETC	0.655 ± 0.14
CIRPPPPSPKLM	0.694 ± 0.0096
CISIRKEERRKI	0.7012 ± 0.0019

Sequence	protein stability index
CKCRRYYTLNGG	0.656 ± 0.025
CKFPSLCVLSSV	0.654 ± 0.07
CKHPAWFQPRVG	0.618 ± 0.044
CKIGMFIRWIGG	0.571 ± 0.04
CKLDVMSRSFVG	0.664 ± 0.0089
CKNRLKMKQESK	0.658 ± 0.028
CLAFDLGLSPLF	0.755 ± 0.099
CLEGCTIHTSGE	0.652 ± 0.015
CLFWWDASTILP	0.68 ± 0.13
CLGGRRVCRCKG	0.631 ± 0.054
CLGVCAFSFCCN	0.624 ± 0.012
CLLPGSSYSFTS	0.712 ± 0.045
CLMHTENCIRKA	0.674 ± 0.032
CLRDTLTCLFFF	0.5953 ± 0.0044
CLRGLLVMLYQR	0.54 ± 0.01
CLRRGGAGEGAS	0.687 ± 0.0037
CLRWSRVGTVVV	0.564 ± 0.025
CLSDPDVVRVLS	0.6914 ± 0.0018
CLSLLWRVLDLW	0.688 ± 0.065
CLWGQWAVGCMG	0.6169 ± 0.0019
CNGPRLFDKSPI	0.695 ± 0.017
CNRVSLSNVRLF	0.6675 ± 0.00083
CPFPLPPPTLPP	0.657 ± 0.01
CPGVLVLMCGRP	0.589 ± 0.009
CPLLSCAAFLSS	0.719 ± 0.025

Sequence	protein stability index
CPLLSPTPPLRP	0.703 ± 0.019
CPPLEWSLRYPV	0.722 ± 0.017
CPPRIAFPCGIQ	0.649 ± 0.094
CPPRPLHSPLPP	0.694 ± 0.022
CRGGLGASCRGR	0.67 ± 0.008
CRGGPLGYGCGS	0.827 ± 0.17
CRGRGGCPMSWR	0.689 ± 0.1
CRGRSGMCNLET	0.751 ± 0.04
CRGWVRVAGLRA	0.604 ± 0.085
CRKIKFIQKINK	0.623 ± 0.046
CRLRLVYCVKYD	0.621 ± 0.013
CRMPLFGSYPLG	0.683 ± 0.022
CRSNISDLFSSV	0.7793 ± 0.0063
CSEDMVGSIVVV	0.651 ± 0.041
CSFFGPGFICSL	0.666 ± 0.013
CSLFIRCAPFCG	0.705 ± 0.017
CSLFRCSKVVLG	0.672 ± 0.037
CSLGLGGRVAAL	0.697 ± 0.048
CSLSYFSAHCVP	0.665 ± 0.044
CSLTVGYNRHDV	0.635 ± 0.00084
CSLVWPGSMSVD	0.738 ± 0.033
CSNKIILMTRNN	0.564 ± 0.041
CSPLNFGNGLLL	0.584 ± 0.013
CSRTIGGFLWDQ	0.6994 ± 0.0054
CSSLPPCPYSLP	0.654 ± 0.12

Sequence	protein stability index
CSSVRRRSWCFS	0.846 ± 0.16
CSTIRDFTIYPP	0.694 ± 0.11
CSVGLPPLPPLH	0.704 ± 0.076
CSVVMGFYCRGA	0.694 ± 0.038
CTGISVFYLFGD	0.66 ± 0.033
CTLSQGLSGSRI	0.6609 ± 0.0024
CTLWCIPGCNMR	0.666 ± 0.066
CTPVLLLRVLGN	0.58 ± 0.036
CTSCHVWRLSRF	0.765 ± 0.034
CVCVCHPPRRFL	0.719 ± 0.015
CVGLIGVINGGL	0.558 ± 0.0081
CVGPSVERGFWG	0.689 ± 0.031
CVGTLSPKTVRT	0.697 ± 0.024
CVLGVGVPAGGG	0.634 ± 0.032
CVPPSFRPSLFD	0.75 ± 0.015
CVREDSRPFPAS	0.76 ± 0.044
CVSRRRGGEIGG	0.655 ± 0.044
CVSSALRVPGRE	0.699 ± 0.027
CVTFGGCGVWYV	0.624 ± 0.018
CVWFGVGRCCGR	0.648 ± 0.043
CVWHELTYGSLY	0.66 ± 0.062
